From US20240343823A1 (Ablynx, published 2024)

Experiments:
[1] = target: T1, human GPC3 on tumor cell lines (HepG2, Huh-7, NCI-H661, MKN-45, NCI-H23, BxPC-3, NCI-H292) (human, UniProt P51654 25-554); assay: flow cytometry on Huh-7 cells
T1 construct: Endogenous GPC3 of human cancer cell lines; also called GPC3 on HepG2; GPC3 on Huh-7

[2] = target: T2, human Glypican-5 (R&D systems, cat no 2607-G5) (human, UniProt P78333 25-553, limits assumed); assay: ELISA, Glypican-5 coated at 2 ug/mL
T2 construct: Bought; also called GPC5
T2 sequence (looked up): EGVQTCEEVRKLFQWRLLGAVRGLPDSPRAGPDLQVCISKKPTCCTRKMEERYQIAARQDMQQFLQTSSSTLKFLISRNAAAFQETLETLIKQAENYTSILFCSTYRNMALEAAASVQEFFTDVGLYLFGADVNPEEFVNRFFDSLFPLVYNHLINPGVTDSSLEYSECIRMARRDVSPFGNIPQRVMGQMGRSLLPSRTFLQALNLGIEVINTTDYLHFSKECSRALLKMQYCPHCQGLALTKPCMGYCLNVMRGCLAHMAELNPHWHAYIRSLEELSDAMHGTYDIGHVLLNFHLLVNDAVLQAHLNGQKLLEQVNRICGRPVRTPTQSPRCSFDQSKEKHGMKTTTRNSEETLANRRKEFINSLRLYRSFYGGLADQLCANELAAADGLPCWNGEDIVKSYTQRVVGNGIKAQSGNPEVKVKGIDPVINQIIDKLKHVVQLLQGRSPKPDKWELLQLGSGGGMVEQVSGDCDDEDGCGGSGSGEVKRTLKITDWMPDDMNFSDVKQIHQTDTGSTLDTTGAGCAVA
Experimental: Human GPC1 (R&D systems, cat no 4519-GP), human GPC2 (R&D systems, cat no 2304-GP), human GPC3 (R&D systems, cat no 2119-GP), human Glypican-5 (R&D systems, cat no 2607-G5) and human Glypican-6 (R&D systems, cat no 2845-GP) were directly coated overnight at 4° C. (2 μg/mL, 1×PBS buffer) on a 384-well HB SpectraPlate (PerkinElmer). The following day the plate was washed 6 times (AquaMax microplate washer, Molecular devices) and blocked with 1×PBS+1% Casein for 2 hours at room temperature. […] After 6 final wash steps the es(HS)TMB substrate (SDT) was added and the reaction stopped by addition of 1 M HCl after 10 minutes. The absorbance of the plate was measured at wavelengths 450 and 620 nm on the Clariostar instrument (BMG LABTECH) and the OD₄₅₀-OD₆₂₀ calculated and plotted for data analysis.

[3] = target: T3, recombinant human Glypican-3 (R&D Systems, cat nr. 2119-GP) (human, UniProt P51654 25-559); assay: SPR ProteOn XPR36, GPC3 captured on anti-His antibody, 1:1 model
T3 construct: Bought protein; also called human GPC3; hGPC3
Experimental: (§1) Recombinant GPC3 proteins were captured on a GLC Sensor Chip (Biorad) immobilized with THE anti-His antibody (Genscript, cat no ABIN387699) via amine coupling, using EDC and NHS chemistry (running buffer: HBS-EP+, pH7.4). Purified ISVDs were injected for 2 minutes (flow rate 45 μL/min) at different concentrations (between 0.3 nM and 1000 nM) and dissociation was followed for 900 s. Regeneration was performed by injecting 10 mM Glycine-HCl (pH 1.5) for 1 minute (flow rate 45 μL/min). Data was double referenced by subtracting a reference ligand lane and a blank buffer injection. Processed sensorgrams were analyzed based on the 1:1 interaction model (Langmuir binding model) using ProteOn Manager 3.1.0 (Version 3.1.0.6) software.

[4] = target: T4, cyno Glypican-3 delta-GPI-HIS, in-house produced (cynomolgus); assay: as above
T4 construct: range 3-559; also called cyno GPC3; cyGPC3
Experimental: as §1

[5] = target: T5, TCRab on primary cyno T cells (cynomolgus); assay: competition flow cytometry on cyno T cells, competitor T017000623 at EC30 (5E-08 M)
T5 construct: whole, on cells; also called Primary cy T cells; cyno TCR
Experimental: (§2) T cells (human T cells obtained as described in Example 3 and cyno T cells purchased from LPT laboratory, Germany) were thawed and counted on the day of the assay and diluted to a concentration of 1E+06 cells/mL, before adding 75 μL to the wells of a V-bottom 96-well plate (Greiner, cat no 651180). Cells were washed once with cold FACS buffer, before adding 25 μL Nb and 25 μL competitor to the wells. […] Cells were resuspended and plates were incubated at 4° C. for 90 minutes, after which plates were washed twice in cold FACS buffer. Cells were resuspended in 50 μl 1/1000 diluted Monoclonal ANTI-FLAG® M2 (Sigma Aldrich, cat no F1804) in FACS buffer and incubated at 4° C. for 30 minutes. Plates were washed twice in cold FACS buffer. […] Plates were washed twice in cold FACS buffer. Cells were resuspended in 55 μL 1/1000 diluted Propidium Iodide (Sigma-Aldrich, cat no P4170) in FACS buffer before acquiring data on the MACSQuant X (Miltenyi biotec).

[6] = target: T6, TCRab on primary human T cells (human, UniProt P01848 1-140; P01850 1-176); assay: competition flow cytometry on primary human T cells, competitor T017000624 at EC30 (2E-08 M)
T6 construct: whole, on cells; T cells isolated from buffy coats; also called Primary hu T cells; human TCR
T6 TCR alpha (looked up): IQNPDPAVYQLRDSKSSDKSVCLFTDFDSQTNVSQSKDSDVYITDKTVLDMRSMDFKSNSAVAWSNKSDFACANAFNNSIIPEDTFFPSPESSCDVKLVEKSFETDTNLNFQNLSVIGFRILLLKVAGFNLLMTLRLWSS
T6 TCR beta (looked up): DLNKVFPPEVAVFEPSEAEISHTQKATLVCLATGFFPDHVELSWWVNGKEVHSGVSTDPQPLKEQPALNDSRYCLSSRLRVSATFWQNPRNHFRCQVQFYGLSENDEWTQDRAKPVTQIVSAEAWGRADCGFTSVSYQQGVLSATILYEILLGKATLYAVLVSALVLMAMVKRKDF
Experimental: as §2

B1: A022600424 (other)
chain: DVQLVESGGGVVQPGGSLRLSCVASGYVHKINFYGWYRQAPGKEREKVAHISIGDQTDYADSAKGRFTISRDESKNTVYLQMNSLRPEDTAAYYCRALSRIWPYDYWGQGTLVTVSSGGGGSEVQLVESGGGVVQPGGSLRLSCAASGFTFSSFAMTWVRRPPGKGLEWVATITNKGVTSYADSVKGRFTISRDNAKNTLYLQMNSLRPEDTALYICANARRTGPRAPTDIGSYRGQGTLVTVSSGGGGSGGGSEVQLVESGGGVVQPGGSLRLSCAASGSIFRSVFSSSTMEWYRQAPGKKRELVARIAPGEGTYYGALYADSVKGRFTISRDNAKNTVYLQMNSLRPEDTALYYCASGVAWGQGTLVTVSSGGGGSGGGSEVQLVESGGGVVQPGGSLRLSCAASGFTFRSFGMSWVRQAPGKGPEWVSSISGSGSDTLYADSVKGRFTISRDNSKNTLYLQMNSLRPEDTALYYCTIGGSLSRSSQGTLVTVSSA
notes: Trispecific tetravalent ISVD (VHH) T-cell engager: anti-TCR, two anti-GPC3 (biparatopic), anti-albumin; also called TCE01-5GS-A022600351-9GS-A022600314-9GS-ALB23002-A
B1 was tested, and the EC50 [1] was 1.25 nM, the binding result [2] was “no binding” and the Kd [3] was < 0.0056 nM. The Kd [4] was < 0.0059 nM, the IC50 [5] was 250 nM and the IC50 [6] was 170 nM.
